# System: GST-YTHDF2 (human)
# Assay: EMSA
# Details: one N6-methyladenosine
substance,measurement,value
m6A-RNA,Kd,465 nM

# Source: PMC3658177
